The target in the experiment is human lymphotoxin (TNFβ) (human) (UniProt P01374). The experiment can be described thus: cell-based or functional assay.

The record followed here is patent US20060140946A1.

Sequence of human lymphotoxin (TNFβ) (human) (P01374 35-205 limits assumed): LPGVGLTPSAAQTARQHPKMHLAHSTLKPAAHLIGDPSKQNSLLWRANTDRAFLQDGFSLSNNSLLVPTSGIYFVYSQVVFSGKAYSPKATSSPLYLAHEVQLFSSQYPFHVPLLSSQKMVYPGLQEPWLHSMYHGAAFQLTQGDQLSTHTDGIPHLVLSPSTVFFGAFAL

The substance “p75P-sf2 TNF receptor/IgG1 fusion protein (from UniProt P20333 23-204) (Fc fusion)” showed a concentration required to half-inhibit human TNFβ at 2 pM, WEHI 164 cytotoxicity assay of 31 pM.
